Data as given in article PMC4838357.

Columns and labels:
Assay in all cases: MITOMI
[1] = target: Zif268 I28A (mouse, UniProt P08046 333-421, I359A)
[2] = target: Zif268 R14A (mouse, UniProt P08046 333-421, R345A)
[3] = target: Zif268 R70A (mouse, UniProt P08046 333-421, R401A)

Measured: binding result

B1: target_268wt (Zif268 consensus) (dsDNA)
DNA 1: GGCCAATTAGCGTGGGCGTTTTCCGGCGGTATGAC
DNA 2: GTCATACCGCCGGAAAACGCCCACGCTAATTGGCC
binds: [1] | [2] | [3]
